Target: H3 1–19 peptide

PRDM9 (195–415), sequence (Q9NQV7 195-415): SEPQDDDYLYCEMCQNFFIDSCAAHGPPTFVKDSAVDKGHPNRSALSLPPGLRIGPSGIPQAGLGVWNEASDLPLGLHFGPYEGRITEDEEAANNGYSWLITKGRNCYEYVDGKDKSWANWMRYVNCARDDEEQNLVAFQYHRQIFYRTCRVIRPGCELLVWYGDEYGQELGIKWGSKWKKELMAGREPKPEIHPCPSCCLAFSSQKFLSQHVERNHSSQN

## PRDM9 (195–415) (from UniProt Q9NQV7 195-415) (enzyme)
  methylation of the soluble peptide (2.5 µM peptide, 50 nM enzyme, radioactively labeled AdoMet, autoradiography); ratio of the initial methylation rates H3K4/H3K36 (fold (against the H3K36 26-44 peptide)): 5.2

From publication PMC12122940
